Tested on: Arabidopsis thaliana T1 plants
Experiment: Isoxaflutole tolerance of transgenic Arabidopsis thaliana T1 plants (spray, bleached leaf area grade, damage score);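 for Scores: Weighted damage index from 0 to 100 where higher means more damage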
Type: in vivo
Settings: for Grade 0 (classification and statistics of the grade of pesticide damage; number of plants) / Grade 1 (classification and statistics of the grade of pesticide damage; number of plants) / Grade 2 (classification and statistics of the grade of pesticide damage; number of plants) / Grade 3 (classification and statistics of the grade of pesticide damage; number of plants): 16 plants; for Classification and statistics of the grade of pesticide damage: Grade 0 / Classification and statistics of the grade of pesticide damage: Grade 1 / Classification and statistics of the grade of pesticide damage: Grade 2 / Classification and statistics of the grade of pesticide damage: Grade 3: number of plants
Summary of the method: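 Damage graded 0–3 from the proportion of bleached leaf area 7 days after spraying. Plants were glufosinate-selected T1 lines, 18 days after sowing, plus vector and wild-type controls. Rates: mesotrione 52.5–420, isoxaflutole 35–280, topramezone 25–200 g ai/ha, with water (0×).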

[1] = isoxaflutole 140 g ai/ha (2x field concentration), Arabidopsis thaliana T1 plants
[2] = isoxaflutole 140 g ai/ha (2×), 7 DAT, Table 2
[3] = isoxaflutole 140 g ai/ha, number of plants in grade
[4] = isoxaflutole 280 g ai/ha (4x field concentration), Arabidopsis thaliana T1 plants
[5] = isoxaflutole 280 g ai/ha (4×), 7 DAT, Table 2
[6] = isoxaflutole 280 g ai/ha, number of plants in grade

B1: AsHPPD-02: nucleotide sequence encoding Avena sativa wild-type HPPD; vector DBN11727 (nucleic acid)
DNA: ATGCCACCTACTCCAGCTACAGCTACTGGTGCTGCTGCTGCTGCCGTTACTCCTGAGCACGCTGCCAGGTCATTCCCCAGGGTGGTTCGCGTGAACCCCAGATCTGATAGGTTCCCAGTTCTGAGCTTCCACCATGTTGAGCTGTGGTGCGCTGATGCTGCTTCTGCTGCTGGCAGGTTCTCTTTCGCTCTTGGTGCTCCACTCGCTGCTAGATCTGATCTGTCTACAGGAAATAGCGCTCATGCCTCACTCCTGCTTCGCTCAGGTGCTTTGGCCTTCCTCTTCACCGCTCCATATGCTCCCCCACCTCAGGAGGCTGCTACTGCTGCTGCTACAGCCTCCATTCCAAGCTTCTCAGCTGATGCCGCTAGAACCTTCGCTGCTGCTCATGGACTTGCCGTGAGGTCTGTTGGTGTTCGCGTGGCTGATGCTGCTGAGGCTTTCAGAGTTTCCGTTGCCGGCGGAGCTAGGCCAGCTTTCGCTCCTGCTGATTTGGGACATGGTTTCGGCCTGGCTGAGGTTGAGCTTTACGGTGACGTGGTTCTCCGCTTCGTGTCTTACCCAGATGAGACTGACCTGCCTTTCCTTCCCGGCTTCGAGAGAGTTTCCTCTCCTGGTGCCGTGGATTACGGCCTGACAAGGTTCGACCACGTGGTTGGAAACGTTCCCGAGATGGCTCCAGTGATCGATTACATGAAGGGCTTCCTTGGATTCCATGAGTTCGCCGAGTTCACTGCTGAGGACGTGGGAACCACTGAGTCCGGTTTGAACTCTGTGGTTCTCGCCAACAATTCTGAGGCTGTTTTGCTCCCTCTGAATGAGCCTGTGCATGGAACCAAGAGGAGAAGCCAGATTCAAACTTACCTGGAGTACCACGGTGGCCCTGGAGTTCAGCATATCGCCCTTGCTTCTAATGATGTGTTGCGCACACTCAGAGAGATGCGCGCCAGAACCCCCATGGGAGGTTTCGAGTTCATGGCCCCACCACAGGCTAAGTACTACGAGGGCGTTAGAAGGATTGCTGGAGACGTGTTGAGCGAGGAGCAGATCAAGGAGTGCCAAGAGCTGGGTGTTCTTGTGGATAGGGATGACCAGGGCGTTCTGCTTCAAATTTTCACTAAGCCAGTGGGCGACCGCCCTACATTCTTCCTTGAGATGATTCAAAGAATCGGCTGCATGGAGAAGGATGAGGTTGGACAGGAGTACCAAAAGGGCGGATGCGGTGGCTTCGGAAAGGGTAACTTCAGCGAGTTGTTCAAGTCAATCGAGGACTACGAGAAGAGCCTCGAGGTGAAGCAGTCAGTGGTTGCCCAAAAGTCCTGA
modifications: AsHPPD-02 Nucleotide Sequence
notes: vector DBN11727
Table 11, isoxaflutole 140 g ai/ha (2×)
  Resistance evaluation: Non-resistant
Table 11, isoxaflutole 140 g ai/ha (2×), number of plants at grade 0
  Classification and statistics of the grade of pesticide damage Grade 0: 0
Table 11, isoxaflutole 140 g ai/ha (2×), number of plants at grade 1
  Classification and statistics of the grade of pesticide damage Grade 1: 1
Table 11, isoxaflutole 140 g ai/ha (2×), number of plants at grade 2
  Classification and statistics of the grade of pesticide damage Grade 2: 4
Table 11, isoxaflutole 140 g ai/ha (2×), number of plants at grade 3
  Classification and statistics of the grade of pesticide damage Grade 3: 11
Table 11, isoxaflutole 140 g ai/ha (2×), pesticide damage score
  Scores: 88
Table 11, isoxaflutole 280 g ai/ha (4×)
  Resistance evaluation: Non-resistant
Table 11, isoxaflutole 280 g ai/ha (4×), number of plants at grade 0
  Classification and statistics of the grade of pesticide damage Grade 0: 0
Table 11, isoxaflutole 280 g ai/ha (4×), number of plants at grade 1
  Classification and statistics of the grade of pesticide damage Grade 1: 0
Table 11, isoxaflutole 280 g ai/ha (4×), number of plants at grade 2
  Classification and statistics of the grade of pesticide damage Grade 2: 0
Table 11, isoxaflutole 280 g ai/ha (4×), number of plants at grade 3
  Classification and statistics of the grade of pesticide damage Grade 3: 16
Table 11, isoxaflutole 280 g ai/ha (4×), pesticide damage score
  Scores: 100
In vivo
  tolerance to isoxaflutole (in words): no tolerance
Isoxaflutole 140 g ai/ha
  Resistance evaluation: Non-resistant
  Scores: 88
[1]
  Resistance evaluation: Non-resistant
  Scores: 88
  Grade 0 (classification and statistics of the grade of pesticide damage; number of plants): 0
  Grade 1 (classification and statistics of the grade of pesticide damage; number of plants): 1
  Grade 2 (classification and statistics of the grade of pesticide damage; number of plants): 4
  Grade 3 (classification and statistics of the grade of pesticide damage; number of plants): 11
[2]
  Resistance evaluation: non-resistant (non-resistant plants (scores 68-100))
  Classification and statistics of the grade of pesticide damage: Grade 0: 0
  Classification and statistics of the grade of pesticide damage: Grade 1: 1
  Classification and statistics of the grade of pesticide damage: Grade 2: 4
  Classification and statistics of the grade of pesticide damage: Grade 3: 11
[3]
  Classification and statistics of the grade of pesticide damage Grade 0: 0
  Classification and statistics of the grade of pesticide damage Grade 1: 1
  Classification and statistics of the grade of pesticide damage Grade 2: 4
  Classification and statistics of the grade of pesticide damage Grade 3: 11
Isoxaflutole 280 g ai/ha
  Resistance evaluation: Non-resistant
  Scores: 100
[4]
  Resistance evaluation: Non-resistant
  Scores: 100
  Grade 0 (classification and statistics of the grade of pesticide damage; number of plants): 0
  Grade 1 (classification and statistics of the grade of pesticide damage; number of plants): 0
  Grade 2 (classification and statistics of the grade of pesticide damage; number of plants): 0
  Grade 3 (classification and statistics of the grade of pesticide damage; number of plants): 16
[5]
  Resistance evaluation: non-resistant (non-resistant plants (scores 68-100))
  Classification and statistics of the grade of pesticide damage: Grade 0: 0
  Classification and statistics of the grade of pesticide damage: Grade 1: 0
  Classification and statistics of the grade of pesticide damage: Grade 2: 0
  Classification and statistics of the grade of pesticide damage: Grade 3: 16
[6]
  Classification and statistics of the grade of pesticide damage Grade 0: 0
  Classification and statistics of the grade of pesticide damage Grade 1: 0
  Classification and statistics of the grade of pesticide damage Grade 2: 0
  Classification and statistics of the grade of pesticide damage Grade 3: 16
Pesticide damage score 0-100, isoxaflutole 140 g ai/ha (2×), 7 DAT, Table 2
  Scores: 88
Pesticide damage score 0-100, isoxaflutole 280 g ai/ha (4×), 7 DAT, Table 2
  Scores: 100

From patent publication US20250043302A1, “MUTATED HYDROXYPHENYLPYRUVATE DIOXYGENASE POLYPEPTIDE, AND CODING GENE AND USE THEREOF” (BEIJING DABEINONG BIOTECHNOLOGY CO., LTD., priority 2021, published 2025)
